US20220315920

System: TfuCascade (Cse2 N23A, Cas7-NLS) + TfuCas3 (Type I-E) Cse2 N23A (Thermobifida fusca)
Experiment: cell_activity
Details: PAM AAG; for activity (% editing (6-TG resistance)): HAP1 cells RNP

Sequence “AUGGACCGACCUUGCACUACCUGUGGCUUCCAUUUUCCUGGUGAGCCCCACGCACGUGGG / AAGACCTTGCACTACCTGTGGCTTCCATTTTCCTG / CAGGAAAATGGAAGCCACAGGTAGTGCAAGGTCTT [crRNA HPRT-G1 ; HPRT target G1 (PAM+protospacer)]” has an activity (% editing (6-TG resistance)) of 67.
“AUGGACCGAAGCCGAGGCUCCCCCAGCGAAGCCCCUUUCCGUGAGCCCCACGCACGUGGG / AAGAAGCCGAGGCTCCCCCAGCGAAGCCCCTTTCC / GGAAAGGGGCTTCGCTGGGGGAGCCTCGGCTTCTT [crRNA HPRT-G2 ; HPRT target G2 (PAM+protospacer)]” gave an activity (% editing (6-TG resistance)) of 32.
“AUGGACCGCUGGACAUCACCUCCCACAACGAGGACUACACGUGAGCCCCACGCACGUGGG / AAGCTGGACATCACCTCCCACAACGAGGACTACAC / GTGTAGTCCTCGTTGTGGGAGGTGATGTCCAGCTT [crRNA tdTomato ; tdTomato target (PAM+protospacer)]” gave an activity (% tdTomato-negative cells) (hESC RNP) of 2.7.
With “AUGGACCGUCGAUGCCCUUCAGCUCGAUGCGGUUCACCAGGUGAGCCCCACGCACGUGGG / AAGTCGATGCCCTTCAGCTCGATGCGGTTCACCAG / CTGGTGAACCGCATCGAGCTGAAGGGCATCGACTT [crRNA GFP-G2 ; EGFP target G2 (PAM+protospacer)]” the activity (% EGFP-negative cells) (hESC RNP) was 2.7.
“AUGGACCGGCUACGUCCAGGAGCGCACCAUCUUCUUCAAGGUGAGCCCCACGCACGUGGG / AAGGCTACGTCCAGGAGCGCACCATCTTCTTCAAG / CTTGAAGAAGATGGTGCGCTCCTGGACGTAGCCTT [crRNA GFP-G1 ; EGFP target G1 (PAM+protospacer)]” was tested, and the activity (% EGFP-negative cells) (hESC RNP electroporation, 80 pmol Cascade, 20 pmol Cas3, 7.3% in FIG. 1D) was 13.1.
